{"source": "patent US20050191706A1", "binders": {"B1": {"name": "bio-HA308-316 (peptide)", "chain": "PKYVKQNTLKLAT"}}, "key": {"Lβ11H, Dβ57A": {"target": "Lβ11H, Dβ57A", "experiment": "flow", "details": "chains peptide; modification not given"}, "Lβ26F": {"target": "Lβ26F", "experiment": "flow", "details": "chains peptide; modification not given"}}, "data": [{"binder": "B1", "values": [{"measurement": "Kd", "setting": "Lβ11H, Dβ57A", "value": 8.56, "unit": "µM"}, {"measurement": "Kd", "setting": "Lβ26F", "value": 3.72, "unit": "µM"}]}]}
